Results taken from publication PMC12418388 (2025).

Target: T1, DDX6 (Homo sapiens, UniProt P26196)
T1 chain: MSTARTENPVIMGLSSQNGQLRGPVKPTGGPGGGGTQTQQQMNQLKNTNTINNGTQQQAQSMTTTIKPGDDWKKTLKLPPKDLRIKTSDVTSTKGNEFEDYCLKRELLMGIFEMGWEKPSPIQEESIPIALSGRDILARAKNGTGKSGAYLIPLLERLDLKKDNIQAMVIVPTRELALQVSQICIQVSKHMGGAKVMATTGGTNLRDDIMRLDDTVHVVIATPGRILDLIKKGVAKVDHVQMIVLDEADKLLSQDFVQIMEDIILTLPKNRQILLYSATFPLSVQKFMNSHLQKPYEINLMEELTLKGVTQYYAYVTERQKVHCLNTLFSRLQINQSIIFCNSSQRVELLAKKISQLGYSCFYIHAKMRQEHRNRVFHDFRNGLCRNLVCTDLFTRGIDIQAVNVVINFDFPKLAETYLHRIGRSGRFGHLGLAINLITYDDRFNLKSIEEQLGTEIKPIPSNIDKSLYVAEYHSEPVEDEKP
Assay: BLI

B1: DDX3X (protein)
chain: SHVAVENALGLDQQFAGLDLNSSDNQSGGSTASKGRYIPPHLRNREATKGFYDKDSSGWSSSKDKDAYSSFGSRSDSRGKSSFFSDRGSGSRGRFDDRGRSDYDGIGSRGDRSGFGKFERGGNSRWCDKSDEDDWSKPLPPSERLEQELFSGGNTGINFEKYDDIPVEATGNNCPPHIESFSDVEMGEIIMGNIELTRYTRPTPVQKHAIPIIKEKRDLMACAQTGSGKTAAFLLPILSQIYSDGPGEALRAMKENGRYGRRKQYPISLVLAPTRELAVQIYEEARKFSYRSRVRPCVVYGGADIGQQIRDLERGCHLLVATPGRLVDMMERGKIGLDFCKYLVLDEADRMLDMGFEPQIRRIVEQDTMPPKGVRHTMMFSATFPKEIQMLARDFLDEYIFLAVGRVGSTSENITQKVVWVEESDKRSFLLDLLNATGKDSLTLVFVETKKGADSLEDFLYHEGYACTSIHGDRSQRDREEALHQFRSGKSPILVATAVAARGLDISNVKHVINFDLPSDIEEYVHRIGRTGRVGNLGLATSFFNERNINITKDLLDLLVEAKQEVPSWLENMAYEHHYKGSSRGRSKSSRFSGGFGARDYRQSSGASSSSFSSSRASSSRSGGGGHGSSRGFGGGGYGGFYNSDGYGGNYNSQGVDWWGN
Kd: 389 nM
